In patent US20250121087A1 (INTOCELL, published 2025) one finds Kd, koff and kon data, which are given here for nine molecules.

Experiment [1] deals with T1, human B7-H3 (Y-Biologics Inc.) (human, UniProt Q5ZPR3 29-466).
T1 chain: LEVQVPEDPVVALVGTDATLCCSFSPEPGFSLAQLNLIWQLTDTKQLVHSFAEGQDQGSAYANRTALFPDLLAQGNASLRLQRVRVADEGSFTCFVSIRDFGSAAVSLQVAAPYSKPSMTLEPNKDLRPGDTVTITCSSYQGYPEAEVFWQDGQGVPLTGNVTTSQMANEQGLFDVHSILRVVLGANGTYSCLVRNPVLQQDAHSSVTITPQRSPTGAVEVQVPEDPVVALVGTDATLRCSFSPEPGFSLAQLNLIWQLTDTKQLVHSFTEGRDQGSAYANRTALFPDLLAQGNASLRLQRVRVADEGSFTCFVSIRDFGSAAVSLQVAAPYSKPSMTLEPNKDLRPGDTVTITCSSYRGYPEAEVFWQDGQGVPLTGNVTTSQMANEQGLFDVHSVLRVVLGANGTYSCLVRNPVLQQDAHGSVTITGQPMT
The experiment is described as follows: BLI (Octet QKe), antibody on AHC biosensor, human B7-H3 as analyte, 1:1 global fit. Background: In BLI a coated tip is dipped into the sample, and binding shifts an interference pattern.

The target of experiment [2] is T2, Human 4IgB7-H3 (Y-Biologics Inc.) (human, UniProt Q5ZPR3 29-466, limits assumed).
T2 construct: 4Ig isoform
T2 sequence (looked up): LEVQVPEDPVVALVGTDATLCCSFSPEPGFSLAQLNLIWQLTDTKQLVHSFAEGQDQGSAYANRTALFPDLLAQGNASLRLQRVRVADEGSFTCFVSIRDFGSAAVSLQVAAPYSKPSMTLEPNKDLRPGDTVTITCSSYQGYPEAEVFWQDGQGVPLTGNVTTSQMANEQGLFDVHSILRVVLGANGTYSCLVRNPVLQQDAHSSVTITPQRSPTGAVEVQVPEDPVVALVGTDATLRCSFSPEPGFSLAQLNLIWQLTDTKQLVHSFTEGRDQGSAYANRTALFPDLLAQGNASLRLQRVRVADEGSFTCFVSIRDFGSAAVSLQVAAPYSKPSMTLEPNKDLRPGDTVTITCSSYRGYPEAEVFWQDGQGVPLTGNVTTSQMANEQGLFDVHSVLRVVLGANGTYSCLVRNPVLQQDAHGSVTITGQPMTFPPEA
Briefly: SPR (Biacore 8K), antibody captured on anti-human Fc, antigen as analyte, 1:1 fit. The procedure:
(§1) A Biacore 8K (GE Life science) instrument was used to measure the binding kinetics about several B7-H3 variants (analyte) binding to various mAbs (ligands). Antibodies were captured onto the immobilized anti-human Fc antibody (GE Life science). […] For binding kinetic measurements, the HBS-EP+ was used for running buffer (10 mM Hepes, pH7.4, 150 mM NaCl, 3 mM EDTA, 0.05% polysorbate20). […] After capturing ligand, various B7-H3 antigens were analyzed for 120 s and the dissociation was monitored for 600 s at a flow rate of 30 ul/min. […] For the kinetic analysis, 5 points of 2-fold diluted analytes were flown over the captured ligand ranging from 20 nM of human 4Ig B7-H3 (Y-Biologics Inc.), 320 nM of human 2Ig B7-H3 (Acrobiosystems), 40 nM of cynomolgus monkey B7-H3 (Sino biological Inc.), and 160 nM of mouse B7-H3 (Sino biological Inc.). Kinetic information was calculated by fitting data to a 1:1 binding model using Biacore Insight Evaluation software (GE Life Science) to determine ka (association constant), kd (dissociation constant), and KD (equilibrium dissociation constant).

Experiment [3] deals with T3, Human 2IgB7-H3 (Acrobiosystems) (human, UniProt Q5ZPR3-2 29-245, limits assumed).
T3 construct: 2Ig isoform (the short splice form of the same UniProt entry)
T3 sequence (looked up): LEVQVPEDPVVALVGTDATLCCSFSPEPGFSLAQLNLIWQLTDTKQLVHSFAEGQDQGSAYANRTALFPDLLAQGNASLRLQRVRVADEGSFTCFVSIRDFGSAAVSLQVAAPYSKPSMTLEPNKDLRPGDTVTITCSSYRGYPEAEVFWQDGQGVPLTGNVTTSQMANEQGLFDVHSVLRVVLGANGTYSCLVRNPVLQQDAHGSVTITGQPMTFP
Described as above. As to the method:
as §1

Experiment [4] addresses T4, Cyno B7-H3 (Sino biological Inc.) (cynomolgus monkey).
T4 construct: also called cynomolgus monkey B7-H3
The description is as above. The procedure: as §1

For experiment [5], the target named is T5, Mouse B7-H3 (Sino biological Inc.) (mouse, UniProt Q8VE98 29-244, limits assumed).
T5 sequence (looked up): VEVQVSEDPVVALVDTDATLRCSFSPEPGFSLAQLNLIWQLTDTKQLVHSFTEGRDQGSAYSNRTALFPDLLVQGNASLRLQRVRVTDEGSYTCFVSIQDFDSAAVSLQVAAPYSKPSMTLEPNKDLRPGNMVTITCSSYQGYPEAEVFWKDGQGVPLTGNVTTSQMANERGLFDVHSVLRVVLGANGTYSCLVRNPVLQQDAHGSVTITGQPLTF
The description is as above. The procedure: as §1

B1: AB3 (SA2103, CD276-039C05) (antibody, human IgG1, V domains shown)
VH: QVQLVESGAEVKKPGSSVKVSCKASGGTFSSYAISWVRQAPGQGLEWMGRIIPILGIANYAQKFQGRVTITADKSTSTAYMELSSLRSEDTAVYYCANGGDSSSWYTFDYWGQGTLITVSS
VL: DIQMTQSPSTLSASVGDKLTLTCRASQSISRWLAWYQQKPGKAPKLLIYKASYLQTGVPSRFSGSGTGTEFTLTISSLQPDDFATYYCQQYNTFPLTFAGGTKVEIK
notes: Whole human IgG
In experiment [1], B1 yielded a Kd of 0.04 nM, a koff of 3e-05 s⁻¹ and a kon of 600000 M⁻¹ s⁻¹.

B2: AB5 (SA2563, CD276-039C05_LS_002A11) (antibody, human IgG1, V domains shown)
VH: QVQLVESGAEVKKPGSSVKVSCKASGGTFSSYAISWVRQAPGQGLEWMGRIIPILGIANYAQKFQGRVTITADKSTSTAYMELSSLRSEDTAVYYCANGGDSSSWYTFDYWGQGTLITVSS
VL: DIQMTQSPSTLSASVGDRLTITCRASQNINSWLAWYQQKPGKAPKLLIYKASYLQTGVPSRFSGSGSGTEFTLTITSLQPDDFASYYCQQYDSNPLTFGGGTKVEIK
notes: Whole human IgG; also called CD276-39C05_LS_002A11
Turning to B2, in experiment [1], binding was put at a Kd of 0.1 nM, the koff was found to be 0.0002 s⁻¹ and the kon was 1e+06 M⁻¹ s⁻¹.

B3: AB6 (SA2566, CD276-039C05_LS_002B07) (antibody, human IgG1, V domains shown)
VH: QVQLVESGAEVKKPGSSVKVSCKASGGTFSSYAISWVRQAPGQGLEWMGRIIPILGIANYAQKFQGRVTITADKSTSTAYMELSSLRSEDTAVYYCANGGDSSSWYTFDYWGQGTLITVSS
VL: DIQMTQSPSSLSASVGDRVTITCRASQGISSYLAWYQQKPGKAPKLLIYAASTLQSGVPSRFSGSGSGTDFTLTISSLQPEDFATYYCQQYYSFPLTFGGGTKVEIK
notes: Whole human IgG; also called CD276-39C05-LS-002B07
In experiment [1], B3 showed a Kd of 0.2 nM, a koff of 0.0006 s⁻¹ and a kon of 3e+06 M⁻¹ s⁻¹.

B4: AB8 (SA2579, CD276-039C05_LS_002H07) (antibody, human IgG1, V domains shown)
VH: QVQLVESGAEVKKPGSSVKVSCKASGGTFSSYAISWVRQAPGQGLEWMGRIIPILGIANYAQKFQGRVTITADKSTSTAYMELSSLRSEDTAVYYCANGGDSSSWYTFDYWGQGTLITVSS
VL: DIQMTQSPSTLSASVGDRVTITCRASQSIDNWLAWYQQKPGKAPKLLIYKASSLQSGVPSRFSGSGSGTEFTLTISSLQPDDFASYYCQQYDSNPLTFGGGTKVEIK
notes: Whole human IgG; also called CD276-39C05-LS-002H07
For B4, in experiment [1], the Kd is 0.3 nM, the koff is 0.0003 s⁻¹ and the kon was 900000 M⁻¹ s⁻¹.

B5: AB4 (SA2545, CD276-039C05_LS_001E10) (antibody, human IgG1, V domains shown)
VH: QVQLVESGAEVKKPGSSVKVSCKASGGTFSSYAISWVRQAPGQGLEWMGRIIPILGIANYAQKFQGRVTITADKSTSTAYMELSSLRSEDTAVYYCANGGDSSSWYTFDYWGQGTLITVSS
VL: DIQMTQSPSTLSASVGDRVNITCRASQTINSWLAWYQQKPGKAPKLLIYKASYLQTGVPSRFSGSGAGTEFTLTISSLQPDDFATYYCQQYNSYSLTFGGGTKVEIK
notes: Whole human IgG; also called CD276-39C05-LS-001E10
Consider B5, for which, in experiment [1], binding was put at a Kd of 0.06 nM, the off-rate constant (koff) came out at 7e-05 s⁻¹ and the kon was determined as 1e+06 M⁻¹ s⁻¹.

B6: AB7 (SA2571, CD276-039C05_LS_002D03) (antibody, human IgG1, V domains shown)
VH: QVQLVESGAEVKKPGSSVKVSCKASGGTFSSYAISWVRQAPGQGLEWMGRIIPILGIANYAQKFQGRVTITADKSTSTAYMELSSLRSEDTAVYYCANGGDSSSWYTFDYWGQGTLITVSS
VL: DIQMTQSPSTLSASVGDRVTITCRASETISSWLAWYQQKPGKAPKLLIYKASSLQSGVPSRFSGSGSGTEFTLTISSLQPDDFATYYCQQYYSYPITFGQGTRLEIK
notes: Whole human IgG; also called CD276-39C05_LS_002D03
In experiment [1], B6 registered a Kd of 0.3 nM, a koff of 0.0005 s⁻¹ and a kon of 2e+06 M⁻¹ s⁻¹.

B7: AB9 (SC0041, CD276-m8524), control anti-B7-H3 antibody (antibody, human IgG1, V domains shown)
VH: QVQLQQSGAEVKKPGSSVKVSCKASGGTFSSYAISWVRQAPGQGLEWMGGIIPILGIANYAQKFQGRVTITADESTSTAYMELSSLRSEDTAVYYCARGGSGSYHMDVWGKGTTVTVSS
VL: EIVLTQSPATLSLSPGERATLSCRASQSVSSYLAWYQQKPGQAPRLLIYDASNRATGIPARFSGSGSGTDFTLTISSLEPEDFAVYYCQQRSNWPPRITFGQGTRLEIKR
notes: Control antibody produced by the applicants; Human IgG1, Kappa-T2S
As for B7, the Kd in experiment [2] worked out at 0.518 nM; in experiment [3], 208 nM; in experiment [4], 0.278 nM; in experiment [5] it was 49 nM; in experiment [1], 0.3 nM. In addition, the koff in experiment [2] was 0.000617 s⁻¹; in experiment [3], 0.107 s⁻¹; in experiment [4], 0.000242 s⁻¹; in experiment [5], 0.0294 s⁻¹; in experiment [1], 0.0002 s⁻¹. Further, the kon in experiment [2] stood at 1.19e+06 M⁻¹ s⁻¹; in experiment [3], 515000 M⁻¹ s⁻¹; in experiment [4] it was 871000 M⁻¹ s⁻¹; in experiment [5], 600000 M⁻¹ s⁻¹; in experiment [1], 500000 M⁻¹ s⁻¹.

B8: AB2 (SA2107, CD276-040F10) (antibody, human IgG1, V domains shown)
VH: QVQLVESGAEVKKPGASVKLSCKASGYTFSSYWMHWVRQAPGQRLEWMGEINPGNGHTNYNEKFKSRVTITVDKSASTAYMELSSLRSEDTAVYYCVADPRRPKVPTALFVYWGQGTLVTVSS
VL: DIQMTQSPSSVSASVGDRVTISCRASQGIGTWLAWYQQKPGKAPRLLIYAASSLDSGVPSRFSASGSGTDFTLTISSLQPEDFATYYCQQAINFPITFGQGTRLEIK
notes: Whole human IgG
B8: the Kd stood at 0.446 nM in experiment [2]; 25 nM in experiment [3]; 0.919 nM in experiment [4]; 47.3 nM in experiment [5]; 0.05 nM in experiment [1]. For the same molecule, the koff in experiment [2] stood at 0.000199 s⁻¹; in experiment [3], 0.00515 s⁻¹; in experiment [4] it was 0.000442 s⁻¹; in experiment [5] it was 0.0193 s⁻¹; in experiment [1], 4e-05 s⁻¹. The kon in experiment [2] stood at 446000 M⁻¹ s⁻¹; in experiment [3], 206000 M⁻¹ s⁻¹; in experiment [4] it was 481000 M⁻¹ s⁻¹; in experiment [5] it was 408000 M⁻¹ s⁻¹; in experiment [1], 700000 M⁻¹ s⁻¹.

B9: AB2.1 (SA2107.01, CD276-040F10_IgG1_A1C) (antibody, V domains shown)
VH: QVQLVESGAEVKKPGASVKLSCKASGYTFSSYWMHWVRQAPGQRLEWMGEINPGNGHTNYNEKFKSRVTITVDKSASTAYMELSSLRSEDTAVYYCVADPRRPKVPTALFVYWGQGTLVTVSS
VL: DIQMTQSPSSVSASVGDRVTISCRASQGIGTWLAWYQQKPGKAPRLLIYAASSLDSGVPSRFSASGSGTDFTLTISSLQPEDFATYYCQQAINFPITFGQGTRLEIKR
notes: Tested unconjugated; also called SA2107 A121C
On to B9, for which the Kd in experiment [2] was determined as 1.06 nM; in experiment [3], 21.6 nM; in experiment [4], 1.05 nM; in experiment [5], 42.4 nM; in experiment [1] it was 0.05 nM. Besides, the koff in experiment [2] was found to be 0.00047 s⁻¹; in experiment [3], 0.00469 s⁻¹; in experiment [4] it was 0.000504 s⁻¹; in experiment [5] it was 0.0178 s⁻¹; in experiment [1], 2e-05 s⁻¹. For the same molecule, the kon in experiment [2] came to 442000 M⁻¹ s⁻¹; in experiment [3], 217000 M⁻¹ s⁻¹; in experiment [4], 480000 M⁻¹ s⁻¹; in experiment [5], 420000 M⁻¹ s⁻¹; in experiment [1] it was 500000 M⁻¹ s⁻¹.

By Kd is commonly meant the equilibrium constant for the complex coming apart. Low values mean higher affinity, high ones lower affinity. As a reminder, the koff is a measure of how fast the partners let go of each other. A higher koff goes with fast dissociation. One may read the kon as the rate constant with which the complex forms. Read a high kon as faster complex formation.
